In the supplement of paper PMC9170038:

Tested on: MS2 coat protein
Test: apparent KD of MS2 coat protein; designed switch direction (-1 OFF switch, 1 ON switch): -1; higher = weaker reporter binding
How it was run: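 Designed RNA switches were transcribed on Illumina chips by stalled E. coli RNA polymerase and titrated with SNAP-549-labelled MS2 coat protein from 0.7 or 1.5 nM, doubling to 3 µM. Step length ran from 0.8–1.5 h at the lowest concentration to 10–20 min at the highest. The apparent KD is the median over clusters for each design, from curve-fitted normalised cluster fluorescence.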

[1] = input ligand: microRNA oligo, concentration not stated
[2] = Eterna round: R95, input ligand: microRNA oligo, concentration not stated
[3] = Eterna round: R95, input ligand: FMN 200 uM
[4] = Eterna round: R95, input ligand: none

Row | Sequence | apparent KD of MS2 coat protein (input ligand: FMN 200 uM) | apparent KD of MS2 coat protein [1] | apparent KD of MS2 coat protein (input ligand: none) | apparent KD of MS2 coat protein [2] | apparent KD of MS2 coat protein [3] | apparent KD of MS2 coat protein [4]
1 | CACCGUUACACAGGAUAUCUUACAUGAGGAUCACCCAUGUAAUAAAUGAGAAUUUCGAAUGUAAAAGAGAAGGGUGGAAUCGGC [Ostracism 66 - Jieux - Exclusion NG 2] (Eterna round: R96, puzzle: Exclusion NG 2) | 73.1 nM | 21.8 nM | 30.3 nM |  |  | 
2 | CCGCUCCGUGUAGGAUAUCGGCGUACCCUGCGCCGAGAAGGACAUGAGGAUCACCCAUGUAUGUUAUUAUCACGCGUGGCGCAC [Design 74] (Eterna round: R96, puzzle: Exclusion NG 1) | 19.8 nM | 14.6 nM | 20.2 nM |  |  | 
3 | UUGUAAUGAUUAGGAUAUUAUUAAUAGAACUUUAUGAUAUACAUGAGGAUCACCCAUGUUACUUAUAAGAAGGAAUCGUAUUAU [JR_ExcNG2_Sub092] (Eterna round: R96, puzzle: Exclusion NG 2) |  | 15.7 nM |  |  |  | 
4 | GGUCCUGAUGAUUUUCUAUACAUGAGGAUCACCCAUGUAUGUGUAUUUUGUUUUUCGCUUUUUGGUCGUCAAUAAUA [Mod-Hoo-honey] (Eterna round: R97, puzzle: Sensor, turn-off variant 1) | 43.8 nM |  | 44.3 nM |  |  | 
5 | UAUAUAUAGUAAGGAUAUGUAUUUAUUUUAUCAACAGAAGGUACUGACAUGAGGAUCACCCAUGUUUUAGUGUGGGCAUGUAGA [JMF's solution 26] (Eterna round: R96, puzzle: Exclusion NG 1) | 155 nM | 69.7 nM | 85.7 nM |  |  | 
6 | UUUUUAUAUGAAGGAUAUACUUAACAUGAGGAUCACCCAUGUGGUGUUGUGAGUGAGUGAGUUUAGUAGAAGGUCAAUUAUUGU [JMF's solution 16] (Eterna round: R96, puzzle: Exclusion NG 2) | 2260 nM | 155 nM | 394 nM |  |  | 
7 | GAAUAGCAAGCGAGAUCCCACAUGAGGAUCACCCAUGUGCUCGUCUUAUAAAGUACUGUGACGAGAGUCACGGUACA [Mat - Sensor, turn-off var - Eli Mod - D14] (Eterna round: R97, puzzle: Sensor, turn-off variant 1) | 14.3 nM |  | 16.1 nM |  |  | 
8 | GGUUGGCGAGGAUAUACAUGAGGAUCACCCAUGUGGUCCUGAGAUAGAAUAGCCCUUUGUAGAAGGCGCGGGUC [salish99_ex3_r4_044] (Eterna round: R97, puzzle: Exclusion 3) | 203 nM |  | 166 nM |  |  | 
9 | CUAAAUCAUGUAGGAUAUGCGUGGCAAAGCUAUGCAGAAGGACAUGAGGAUCACCCAUGUCUUUCCGUCUGAGUACAGACGGGA [Mat - Exclusion NG 1 - Mod of JL - D46] (Eterna round: R96, puzzle: Exclusion NG 1) | 166 nM | 21.7 nM | 26.6 nM |  |  | 
10 | UAGAAUCGAGGAUAUACAUGAGGAUCACCCAUGUGUGGCCAUACGGUGUGGUCGUCAGGUAGAAGGCGAUUAUA [Exclusion 3 - Mod of Jieux's Gilly Gone Silly 23 v.2] (puzzle: Exclusion 3) |  |  |  | 28 nM |  | 
11 | UCGUCGUCGUCAGGAUAUAGUCUUAUUGUUAUGCUUUUGUUCGUACAUGAGGAUCACCCAUGUGGCUAGAAGGGACUAAAGUUU [JR_ExcNG2_Sub017] (Eterna round: R96, puzzle: Exclusion NG 2) | 19.3 nM | 17.2 nM | 23 nM |  |  | 
12 | UUAAAUCAUGUAGGAUAUGCGUGGCGAAGCUAUGCAGAAGGACAUGAGGAUCACCCAUGUUCUAGCGUCUGCGUACAGAUGCAA [JL ENG1 1.10] (Eterna round: R96, puzzle: Exclusion NG 1) | 93.1 nM | 17.5 nM | 17.5 nM |  |  | 
13 | AGCGCCAUCGUGAGAUGGCGUAUUACAUGAGGAUCACCCAUGUAGGAUAUCGAUUGCUUUGCAGUCGAGAAGGACAUGUUCUUC [JL ENG3 3.80 Mod C] (Eterna round: R96, puzzle: Exclusion NG 3) | 66 nM | 16 nM | 23.2 nM |  |  | 
14 | AAUUCGGCAGGAUAUACAUGAGGAUCACCCAUGUAAAUUUUUCGUUUAACUUGAAUGUGUAGAAGGGCCAUUAA [Ex3 #63] (Eterna round: R97, puzzle: Exclusion 3) | 27.6 nM |  | 28.8 nM |  |  | 
15 | ACACUACAUGAGGAUCACCCAUGUCAGGAUAUCGAUAUCACAACUCAUCAACCUCACUCGAGAAGGGACACAUA [wifeneedsadrink] (puzzle: Exclusion 1) |  |  |  | 22.1 nM |  | 
16 | UAUAUAUAGUAAGGAUAUGUAAUUUUUUUAUAAACAGAAGGUACUGACAUGAGGAUCACCCAUGUUUUAGUGUGGGCAUGUAGA [JMF's solution 32] (Eterna round: R96, puzzle: Exclusion NG 1) |  | 78.3 nM |  |  |  | 
17 | GGUCUGCGAGGAUAUACAUGAGGAUCACCCAUGUGCGUGAUACUAGUGAGGUCGGUUGGUAGAAGGCGCGGACG [JL-ex3-2.08 salish99 mod] (puzzle: Exclusion 3) |  |  |  | 245 nM | 128 nM | 649 nM
18 | GGCAAUAACGAGGAUAUCGUAUCGGAAACGAUACGAGAAGGUGUAACAUGAGGAUCACCCAUGUUCCUUAAGCC [Fiskers Ex 6 - 9] (puzzle: Exclusion 6) |  |  |  | 23.5 nM |  | 
19 | GUAUGUUAUGAGGAUAUCGGUGAACAUACACAUCGAGAAGGCAUGACAUGAGGAUCACCCAUGUCAAGGAUGAA [Exclusion 6 - B - 18:a] (puzzle: Exclusion 6) |  |  |  | 16.9 nM | 34.1 nM | 18.3 nM
20 | GCAGCGUAUGUAGGAUAUCGGUCAGUUUCUGAUCGAGAAGGACAUGAGGAUCACCCAUGUAUAUUCCGUCGUGAGACGGGCUGC [JL ENG1 3.69] (Eterna round: R96, puzzle: Exclusion NG 1) | 23.6 nM | 14.3 nM | 18.4 nM |  |  | 
21 | AGAUCGUCAGGAUAUACAUGAGGAUCACCCAUGUAUAGUCUAAAUUUGACUAUAAGAUGUAGAAGGGACGAUCG [Exclusion 3 (MOD5 of #1 Marzena11)] (Eterna round: R97, puzzle: Exclusion 3) | 75.8 nM |  | 21.4 nM |  |  | 
22 | AAUAAACUAGGAUAUACAUGAGGAUCACCCAUGUGUCGCCACGUGCUUGCUCACUCGUGUAGAAGGAGUACGGA [Atisan] (puzzle: Exclusion 3) |  |  |  | 33.4 nM |  | 
23 | GAUACACAUGAGGAUCACCCAUGUUAGGAUAUUAGCGGGAAAGCUGUCAGACAGUCGAUGAGAAGGAACAGGAG [Excls1-VIII] (puzzle: Exclusion 1) |  |  |  | 29.3 nM |  | 
24 | ACAUGUAAUGCAGGAUAUCUGACACAUGAGGAUCACCCAUGUGACCAGAGGAAUUGCUAAGAGUCGGAGAAGGGUAUGUACAUG [Ex NG2 #53] (Eterna round: R96, puzzle: Exclusion NG 2) | 19.4 nM | 12.8 nM | 19.7 nM |  |  | 
25 | GUUUAGUGAGGAUAUGUGGCUUCGAUCGUGAGAUCGAGGCUACAGAAGGCACAUGAGGAUCACCCAUGUUCCUC [salish99_ex4_r4_104] (Eterna round: R97, puzzle: Exclusion 4) | 516 nM |  | 38.9 nM |  |  | 
